Target: T1, Signal peptide peptidase (human (endogenous in HEK293)), Q8TCT9
T1 chain: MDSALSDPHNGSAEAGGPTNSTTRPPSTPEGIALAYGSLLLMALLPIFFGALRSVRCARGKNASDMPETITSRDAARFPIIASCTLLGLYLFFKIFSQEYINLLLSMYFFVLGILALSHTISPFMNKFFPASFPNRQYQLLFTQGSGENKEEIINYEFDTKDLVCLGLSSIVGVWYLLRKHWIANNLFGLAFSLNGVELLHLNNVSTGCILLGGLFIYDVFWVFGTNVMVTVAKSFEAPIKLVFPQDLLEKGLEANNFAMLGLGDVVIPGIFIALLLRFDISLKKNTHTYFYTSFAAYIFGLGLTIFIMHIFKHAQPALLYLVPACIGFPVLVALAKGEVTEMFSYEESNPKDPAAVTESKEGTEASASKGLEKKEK
Experiment: native gel or EMSA; BN-PAGE of HEK293 or HEK293 vigilin-FLAG lysates solubilized in 0.5% DDM, Western blot for SPP and vigilin (or FLAG); second dimension SDS-PAGE for SPP
Details: remark: other sources report otherwise

stoichiometry N: 2
B1: Signal peptide peptidase, Q8TCT9 1-377 (natural protein)
chain: T1 chain
